System: MS2 coat protein
Assay: apparent KD of MS2 coat protein; higher = weaker reporter binding
Details: Eterna round: R107
In short: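 SNAP-549-labelled MS2 coat protein was titrated onto designed RNA switches that had been transcribed on-chip from Illumina sequencing clusters. Amounts doubled from 0.7 or 1.5 nM to 3 µM in 100 mM Tris-HCl pH 7.5, 80 mM KCl, 4 mM MgCl2, with constant ligand or without. Apparent KD is the median per design of normalised cluster binding-curve fits.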

[1] = input ligand: theophylline 20 uM
[2] = input ligand: theophylline 2 mM
[3] = input ligand: tryptophan 2.4 mM

Sequence	apparent KD of MS2 coat protein (input ligand: arginine 13.2 mM) [nM]	apparent KD of MS2 coat protein (input ligand: none) [nM]	apparent KD of MS2 coat protein [1] [nM]	apparent KD of MS2 coat protein [2] [nM]	apparent KD of MS2 coat protein [3] [nM]
GGGCCCGGGCGCGAGCCCGGGCCCAUUGAUACCAGUGAAUAUAUACGCCCUUGGCAGCGAAUCCUAACAUGAGGAUCACCCAUGU [5.B]	34.8	50.2	62.3	49.4	38.2
AAUUGGGUUGGUGAGGUGGUUGGAGGCGAUACCAGCGUGGAAACACGCCCUUGGCAGCGCCAAAACAUGAGGAUCACCCAUGUUA [Plzen]	42	475	365	484	157
GUUCGUCCUACGGCCGCCACUAAAACACAUGAGGAUCACCCAUGUUAGUAUCCUGGCUGGUGUGAUAGGACCGGGUAGGGAAGAA [theeternabot_exclusion_MS2_Trp_B_14]	11		13.6	10.8	
ACGCUGAUUGAUUACAAUCAGCGAAAAGAUACCAGCCUGGAUAUCGGCCCUUGGCAGCUUAAACCUGAGGAUCACCCUGGUAAAA [TheoAS 13 #MS2Right #BothOrNeither #AlternativeMS2]	100	93.6	126	72.9	147
GGAAAAGAAAGAAAAGAAAUCCCUCCCUCCCGAGGACCGGUACGGCCGCCACUCGCCCUCCCUCCCACAUGAGGAUCACCCAUGU [Exclusion - Trytophan A]	23.7		31.3	27.8	
AUGCAUAGCGGAAGGAGCGCAAUAGAAUGACAUGAGGAUCACCCAUGUGUGUGAUGUGGGUUGCAGGUAGGUCGCCGAGUGGUAU [Exclusion - Arginine B (Freestyle 2)]	84	92	128	108	90.5
AAAAUCCUACCUGAGGAUCACCCUGGUGAAGGAGCGCCCGAAAGGGCAGGUAGGUCGCACCUGAGGAUCACCCUGGUAAACCUAA [ArgEX 24 #DoubleMS2 #OpenEnded]	31.6	51.4	40.3	44.9	46.3
GGUUCCUCAACGGCCGCCACUUACUGGAUUAGUGGACCUACUUGCAACAUGAGGAUCACCCAUGUAAGGACCGGGUUGCUCCCAA [theeternabot_exclusion_MS2_Trp_B_34]	46.9		90.1	87.9	
CGCACAUGAGGAUCACCCAUGUGAGGGCGACGAGGACCGGUACGGCCGCCACUCGCAAAACAUGAGGAUCACCCAUGUGCCGCCG [SSTA DOUBLE!!! :-D #3]	19.7	19.3	42.7	29.1	20.3
GCCAGACAUGAGGAUCACCCAUGUAGCGAUACCAGCUCUGUUGUGAGCCCUUGGCAGCGCACUGGCAUCGCGGGUGAUCCUGCAU [(T)''-(Ms2)-(Theo)-(T)'-(M)'-(M)''_Design3]	15.1		137		33.1
GGCUGUCAUAGGAGGUCAAAUAUACUCGAAGGAGCGUCAUAGUAGGCAGGUAGGUCGCGAGACAUGAGGAUCACCCAUGUAGAGA [xkxmullin]	37.7	69.1	122	52.9	30.6
AAUAGACAUGAGGAUCACCCAUGUAUGGAAGGAGCGGUGAAUAAACCAGGUAGGUCGCCAGUGUGAGGGUCAUCUAUGUAAUAAA [#18 Exclusion - Arginine A]	37.6	49	63.3	62.1	46.9
UGUAUGUGAUUUGAUACCAGUUCUGCUGGUAAAACAUGAGGAUCACCCAUGUUACUUUGGGACCCUUGGCAGCAAAUCGCAUACU [SSTheo B #27]	90		119		202
GCACCAGGUACGGAUACCAGCUGCCACGGUUACAUGAGGAUCACCCAUGUGAUAAGGUGUAGCCCUUGGCAGCUGUACCUGGUGC [SSThB NP+V+V2 #7 +-Same Structure]	96.9	142	500	411	258
AUAAGUAAUGUUUCGUGUUUUAUUACAGAUACCAGACUAUACGUUGUCCCUUGGCAGCUGGAUUACAUGAGGAUCACCCAUGUUG [JR_ExcTheophyA_Sub003]	17.6		26.5		18.5
AACAACAAGGGAAGGAGCGCGAAUUAUAGACAUGAGGAUCACCCAUGUAACAUGGGAUUAACGCAGGUAGGUCGCCCACAAACAA [#08 Exclusion - Arginine B]	80.5	162	237	177	117
GGGCCCGGGCCCGAUACCAGCAGAGAAAACAUAUAUCCUAACAUGAGGAUCACCCAUGUAUGCCCUUGGCAGCGGGCCCGGGCCC [#15 Exclusion-TheophyllineB]	32.2	34.5	33.9	33.2	28.2
AUACAUGAGGAUCACCCAUGUUAUAGUGAAGGAGCGACAUUUAUGUCAGGUAGGUCGCACUAAAGUUUAAUAAUUCUUUGAUCUU [JR_SSArginiA_Sub011]	18.6	15.7	24.9	15.6	18.6
ACAUGAGGAUCACCCAUGUAUUACCGGGAAGGAGCGCGUAAGGACGCAGGUAGGUCGCUCGGCGUCGUGCUGGAAAGCACGACGA [#1 Same State - Arginine A Attempt #23 (HarryS)]	12.9	14.1	20.7	17.9	15.1

Sequence	apparent KD of MS2 coat protein (input ligand: arginine 13.2 mM) [nM]	apparent KD of MS2 coat protein (input ligand: none) [nM]	apparent KD of MS2 coat protein [1] [nM]	apparent KD of MS2 coat protein [2] [nM]	apparent KD of MS2 coat protein [3] [nM]
UGAGUUAGACAAAAGUCUAGCUCUGGUGAAGGAGCGUCCGAAAGGACAGGUAGGUCGCACCACAUGAGGAUCACCCAUGUUCCUU [ArgAS 10 #OpenEnded]	112	227	192	323	216
AUCAUAAUAGACUCGUUUGAUUAUAUGGAACGAGGACCGGUACGGCCGCCACUCGUGAUUUACAUGAGGAUCACCCAUGUUAGCA [JR_ExcTryptoA_Sub005]	17		23.5	19.4	
AUAAAUAAUAAAUAAAAUAAAAUGGGUGAACGAGGACCGGUACGGCCGCCACUCGGACAUGAGGAUCACCCAUGUCCAUGUGAAA [#21 Exclusion Tryptophan A]	15.6		20.3	22.7	
UGUAUGUGAUCUGAUACCAGCUUAAUAGCUUGAGGAUCACCCAAGUGGAGCGGAAACGCUAGCCCUUGGCAGCAGAUCGCAUACU [Denovo 10 #StaticStem #AlternativeMS2]	104	198	104	11.9	198
ACGCACAUGAGGAUCACCCAUGUGAACCUACGAGGACCGGUACGGCCGCCACUCGCUGUUCCUACCGGCUUAAUUGUCACUGGGU [theeternabot_sameState_MS2_Trp_A_19]	27.3		54.4	49	
UAAUAAAUAAAUCCAAGGUGAAGGUCAGAUACCAGCCAGAUAACUGGCCCUUGGCAGCUGAAUAAUCAUGAGGAUCACCCAUGAA [TheoAS 25 #OpenEnded #MS2Late #AlternativeMS2]	17.2	22.8	24.7	63.9	19.5
GAGUCCGCGGCGGCCGCCACUCGCGAUAUAACAUGAUAUCAGGACAUGAGGAUCACCCAUGUCACGAGGACCGGGCCGAUCCUCA [Same State Typptophan B GF 5]	17		49.2	35.8	
AAUAACAUGAGGAUCACCCAUGUAAAAGAUACCAGAGUGAUGAUCCUCCCUUGGCAGCUUAAAACGCUAUUGGAAACAAUAGCGA [Mat - Same State Theophlline A - Mod of Eli - D5]	48.8		179		74
GUCUUUGACGAUCUGGGAAAACCAGAUCGACGAGGACCGGUACGGCCGCCACUCGUGUUUUCUUUACAUGAGGAUCACCCAUGUA [#17 Tryptophan A Same State]	13.2		15.7	15.1	
AUUAUAGUUUAUAACGAAGUUGAUACAGAAGGAGCGGGAGUAAUCUCAGGUAGGUCGCUGAUAAUACAUGAGGAUCACCCAUGUG [#15 Same State - Arginine A]	17.1	19	19.4	24.7	18.9
UAGGCACGAGACAUGAGGAUCACCCAUGUUCGAGGACCGGUACGGCCGCCACUCGGUGGACUCAUGGUAAAGCCGGUGAGCCAAU [AK 1.2 SS Trypt (A)]	16.7	17.1	28.1	15.8	51.6
AGACAUGAGGAUCACCCAUGUAGUACGGAUACCAGAUCCAGAUUUAUCCCUUGGCAGCUGUGGUACAGCGUUGCAACGCUCCUAG [Exclusion - Theophylline A (Freestyle 15)]	13.6		22.1		15.4
AGCCCGUGAGCGGCCGCCACUGGAGGCUUUGCGCGACAUGAGGAUCACCCAUGUGUGCCCGGCGUUAGGACCGGGCUCACGUGGU [#1 Same State - Tryptophan B Attempt #20 (HarryS)]	43.8	182	302	288	110
AGCUCGCUUCCUCAAGCGUCAAAGACGCGUCGAGGACCGGUACGGCCGCCACUCGACCUGAGGAUCACCCGGGUCUAAGCGAGCA [TrypAX 8 #SwitchBubble #AlternativeMS2 #MS2Late #CuTurnoff]	45.8	115	136	177	325
AUGUCGUUGAAUAUAGCGGCUUGGUGUGAUACCAGAAUGAUCAAAUUCCCUUGGCAGCAUUACAUGAGGAUCACCCAUGUUUAGG [SSTheo A #18]	18.6		30.2		29.3
AAAUAAAUACAUGAGGAUCACCCAUGUGAAGGAGCGCGCGUUAGCGCAGGUAGGUCGCACAUGAACUCCAAAGUGCAAAAGCACA [MAT - Exclusion Arginine A - Mod of Eli - D8]	19.7	22.8	25.1	20.5	24.7
CCCAAAUAGAUCAAAGGAAUUAUACUCGAAGGAGCGUCAUAGUAGGCAGGUAGGUCGCGAGACAUGAGGAUCACCCAUGUAGAGA [sssmullin]	33.3	51.9	45.6	57.2	34.9
AGACAUGUAGGAUAAUUGACUAUUACAGAUACCAGACUGUCUAAUGUCCCUUGGCAGCUGCAUUACAUGAGGAUCACCCAUGUUA [JR_ExcTheophyA_Sub012]	16.5		22.7		20.4

From the supplement of paper PMC9170038
